According to patent US20110117113A1, “IMMUNOGLOBULIN SINGLE VARIABLE DOMAIN DIRECTED AGAINST HUMAN CXCR4 AND OTHER CELL ASSOCIATED PROTEINS AND METHODS TO GENERATE THEM” (priority 2009, published 2011):

Experiments:
CXCR4 (N119A) [1] = biological target: T1, CXCR4 (N119A) (Homo sapiens, UniProt P61073, N119A); experiment: Basal inositol phosphate accumulation in HEK293T cells transiently expressing CXCR4 (N119A); type: cell-based; conditions: for functional profile on CXCR4 (N119A) (in words): ligand-induced alteration of basal inositol phosphate accumulation; for reduction of the constitutively increased basal signalling of CXCR4 (N119A): basal inositol phosphate accumulation, HEK293T cells transiently expressing CXCR4 (N119A)
T1 construct: expressed in transfected cells; host or cells: HEK293T, transient; membranes in A4, whole cells in A5
T1 sequence (P61073 whole entry N119A): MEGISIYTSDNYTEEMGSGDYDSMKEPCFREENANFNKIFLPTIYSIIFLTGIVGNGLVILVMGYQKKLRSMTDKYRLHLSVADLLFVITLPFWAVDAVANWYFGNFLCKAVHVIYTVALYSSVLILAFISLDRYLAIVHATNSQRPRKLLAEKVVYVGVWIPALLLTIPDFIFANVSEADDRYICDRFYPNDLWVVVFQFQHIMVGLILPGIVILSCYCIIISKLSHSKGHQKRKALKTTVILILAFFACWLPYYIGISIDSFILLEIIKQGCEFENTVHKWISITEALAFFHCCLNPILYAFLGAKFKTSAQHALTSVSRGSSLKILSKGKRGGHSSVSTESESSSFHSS
From the text: The functional profile of monovalent Nanobodies 238D2 and 238D4 as well as their bivalent fusion products L3 and L8 on CXCR4 (N119A) were investigated by measurement of the ligand-induced alteration of the basal inositol phosphate accumulation. HEK293T cells transiently expressing CXCR4 (N119A) show a 3-8 times higher basal rate of inositol phosphate accumulation compared to wild type CXCR4 or mock (which are virtually at the same level). […] The nanobody-induced reduction of basal inositol phosphate accumulation was antagonized by the selective neutral CXCR4 antagonist plerixafor confirming that the observed […] effects are mediated via CXCR4 (N119A).

CXCR4 [2] = biological target: T2, CXCR4 (Homo sapiens, UniProt P61073); experiment: Competition binding, displacement of [^125I]-238D2 on membranes from HEK293T cells transiently expressing CXCR4
T2 construct: expressed in transfected cells; host or cells: HEK293T, transient; membrane fraction
T2 sequence (P61073 whole entry): as the sequence (P61073 whole entry N119A) above, with A119N counted along it
Description: (§1) Iodine incorporation and specific activity were controlled via precipitation of the protein with trichloroacetic acid.
(§2) Competition binding assay—Periplasmic fractions were screened in a competition binding assay using membranes from HEK293T cells transiently expressing CXCR4. […] Membranes were then harvested over polyethylenimine (0.5%)-treated Whatman GF/C filter plates and washed three times with ice cold binding buffer containing 500 mM NaCl. Plates were counted by liquid scintillation.
(§3) Characterization of Nanobody binding to CXCR4—Following purification, receptor binding to characteristics for 238D2 and 238D4 were investigated on cell membranes from HEK293T cells transiently expressing CXCR4.
(§4) Data analysis and presentation—Data are presented as mean±S.E.M. from n independent experiments. Concentration response curves (E/[A] curves) were fitted to the Hill equation using an iterative, least-squares method (GraphPad Prism 4.0, GraphPad Software, San Diego, Calif.) to provide maximal inhibitory effects (Imax), half maximal effective (EC50) or inhibitory concentrations (IC50). Competition binding affinities and functional antagonist affinities (Ki) were calculated using the Cheng and Prusoff equation Ki=IC50/(1+[agonist]/EC50) (Cheng & Prusoff, 1973).

CXCR4 [3] = biological target: T2, CXCR4; experiment: Competition binding, displacement of [^125I]-238D4 on membranes from HEK293T cells transiently expressing CXCR4
Description: as §1, §2, §3, §4

CXCR4 [4] = biological target: T2, CXCR4; experiment: Competition binding, displacement of [^125I]-CXCL12 on membranes from HEK293T cells transiently expressing CXCR4; conditions: maximal displacement; membranes from HEK293T cells transiently expressing CXCR4; mean ± S.E.M.
Description: as §1, §2, §3, §4

CXCR4 (N119A) [5] = biological target: T1, CXCR4 (N119A); experiment: Competition binding with [125I]-CXCL12 on constitutively active CXCR4 mutant N119A; conditions: competition with [125I]-CXCL12 (40 pM); for binding to CXCR4 (N119A) (in words): highest nanobody test concentration 2 μM
Description: Competition binding assay—Periplasmic fractions were screened in a competition binding assay using membranes from HEK293T cells transiently expressing CXCR4. In short, periplasmic extracts (1:10) or ligands were pre-incubated with membranes in binding buffer (50 mM HEPES (pH 7.4), 1 mM CaCl2, 5 mM MgCl2, 100 mM NaCl, 0.5% bovine serum albumin) supplemented with 0.5% BSA for 1 h at 22° C. before the addition of [^125I]-CXCL12 (40 pM) or [^125I]-238D2 (3 nM) or [^125I]-238D4 (3 nM) for additional 2 h at 22° C. […] Membranes were then harvested over polyethylenimine (0.5%)-treated Whatman GF/C filter plates and washed three times with ice cold binding buffer containing 500 mM NaCl. Plates were counted by liquid scintillation.
CXCR4—specific Nanobodies behave as neutral antagonists or inverse agonists on constitutively active mutants of CXCR4—The CXCR4—specific monovalent Nanobodies 238D2 and 238D4 as well as their bivalent fusion products L3 and L8 were investigated on the constitutively active CXCR4 mutant N119A (equivalent to N3.35A in the Ballestros-Weinstein numbering of class A GPCRs). […] Despite of the large number of CAMs for other class A GPCRs and further efforts to generate additional CAMs for CXCR4 (Berchiche et al., 2007), the N119 mutants of CXCR4 remain the only known CAMs for this receptor. […] Methods: Preparation of membranes and competition binding experiments with [125I]-CXCL12 (40 pM) were performed as described before for wild type CXCR4 (vide supra).

[6] = biological target: wildtype human CXCR4 (pcDNA3.1-CXCR4, expressed in HEK293T) (human) (UniProt P61073); experiment: competition with [125I]-CXCL12, HEK293T-CXCR4 membranes
wildtype human CXCR4 (pcDNA3.1-CXCR4, expressed in HEK293T) (human), sequence (P61073 whole entry): as the sequence (P61073 whole entry N119A) above, with A119N counted along it

[7] = biological target: CXCR4 mutation library clone 914 (N192K) (human, UniProt P61073 1-352); experiment: immunofluorescence on HEK-293T expressing the clone, normalised to wild type
CXCR4 mutation library clone 914 (N192K), sequence (P61073 whole entry N192K): as the sequence (P61073 whole entry N119A) above, with A119N, N192K counted along it

[8] = biological target: wildtype human CXCR4 (pcDNA3.1-CXCR4, expressed in HEK293T) (human) (UniProt P61073); experiment: competition with [125I]-238D2, HEK293T-CXCR4 membranes
[9] = biological target: CXCR4 mutation library clone 3630 (W195R) (human) (UniProt P61073); experiment: immunofluorescence on HEK-293T expressing the clone, normalised to wild type
CXCR4 mutation library clone 3630 (W195R) (human), sequence (P61073 whole entry W195R): as the sequence (P61073 whole entry N119A) above, with A119N, W195R counted along it

[10] = biological target: CXCR4 mutation library clone 2834 (E179V, G258E) (human) (UniProt P61073); experiment: as above
CXCR4 mutation library clone 2834 (E179V, G258E) (human), sequence (P61073 whole entry E179V/G258E): as the sequence (P61073 whole entry N119A) above, with A119N, E179V, G258E counted along it

[11] = biological target: CXCR4 mutation library clone 185 (E277A, I245V, N298S) (human) (UniProt P61073); experiment: as above
CXCR4 mutation library clone 185 (E277A, I245V, N298S) (human), sequence (P61073 whole entry I245V/E277A/N298S): as the sequence (P61073 whole entry N119A) above, with A119N, I245V, E277A, N298S counted along it

[12] = biological target: CXCR4 mutation library clone 1057 (K230E, S178R) (human) (UniProt P61073); experiment: as above
CXCR4 mutation library clone 1057 (K230E, S178R) (human), sequence (P61073 whole entry S178R/K230E): as the sequence (P61073 whole entry N119A) above, with A119N, S178R, K230E counted along it

[13] = biological target: CXCR4 mutation library clone 913 (F189S, K308R) (human) (UniProt P61073); experiment: as above
CXCR4 mutation library clone 913 (F189S, K308R) (human), sequence (P61073 whole entry F189S/K308R): as the sequence (P61073 whole entry N119A) above, with A119N, F189S, K308R counted along it

[14] = biological target: CXCR4 mutation library clone 2084 (D187V) (human) (UniProt P61073); experiment: as above
CXCR4 mutation library clone 2084 (D187V) (human), sequence (P61073 whole entry D187V): as the sequence (P61073 whole entry N119A) above, with A119N, D187V counted along it

[15] = biological target: CXCR4 mutation library clone 3728 (D187A, Y157C) (human) (UniProt P61073); experiment: as above
CXCR4 mutation library clone 3728 (D187A, Y157C) (human), sequence (P61073 whole entry Y157C/D187A): as the sequence (P61073 whole entry N119A) above, with A119N, Y157C, D187A counted along it

[16] = biological target: CXCR4 mutation library clone 465 (F189L, S319P, V155E) (human) (UniProt P61073); experiment: as above
CXCR4 mutation library clone 465 (F189L, S319P, V155E) (human), sequence (P61073 whole entry V155E/F189L/S319P): as the sequence (P61073 whole entry N119A) above, with A119N, V155E, F189L, S319P counted along it

[17] = biological target: CXCR4 mutation library clone 2396 (S178C) (human) (UniProt P61073); experiment: as above
CXCR4 mutation library clone 2396 (S178C) (human), sequence (P61073 whole entry S178C): as the sequence (P61073 whole entry N119A) above, with A119N, S178C counted along it

[18] = biological target: CXCR4 mutation library clone 1129 (F189V) (human) (UniProt P61073); experiment: as above
CXCR4 mutation library clone 1129 (F189V) (human), sequence (P61073 whole entry F189V): as the sequence (P61073 whole entry N119A) above, with A119N, F189V counted along it

[19] = biological target: CXCR4 mutation library clone 414 (C218R, E179V, S351T) (human) (UniProt P61073); experiment: as above
CXCR4 mutation library clone 414 (C218R, E179V, S351T) (human), sequence (P61073 whole entry E179V/C218R/S351T): as the sequence (P61073 whole entry N119A) above, with A119N, E179V, C218R, S351T counted along it

[20] = biological target: CXCR4 mutation library clone 2184 (P191T) (human) (UniProt P61073); experiment: as above
CXCR4 mutation library clone 2184 (P191T) (human), sequence (P61073 whole entry P191T): as the sequence (P61073 whole entry N119A) above, with A119N, P191T counted along it

[21] = biological target: CXCR4 mutation library clone 3622 (E277G) (human) (UniProt P61073); experiment: as above
CXCR4 mutation library clone 3622 (E277G) (human), sequence (P61073 whole entry E277G): as the sequence (P61073 whole entry N119A) above, with A119N, E277G counted along it

[22] = biological target: CXCR4 mutation library clone 709 (P163L, S178I) (human) (UniProt P61073); experiment: as above
CXCR4 mutation library clone 709 (P163L, S178I) (human), sequence (P61073 whole entry P163L/S178I): as the sequence (P61073 whole entry N119A) above, with A119N, P163L, S178I counted along it

[23] = biological target: CXCR4 mutation library clone 2270 (V196E) (human) (UniProt P61073); experiment: as above
CXCR4 mutation library clone 2270 (V196E) (human), sequence (P61073 whole entry V196E): as the sequence (P61073 whole entry N119A) above, with A119N, V196E counted along it

[24] = biological target: wildtype human CXCR4 (pcDNA3.1-CXCR4, expressed in HEK293T) (human) (UniProt P61073); experiment: competition with [125I]-238D4, HEK293T-CXCR4 membranes
[25] = maximal displacement, mean ± S.E.M.

## CXCL12: CXCR4 reference ligand, human CXCL12 (SDF-1) [reference compound]
CXCR4 (N119A) [1]; inositol phosphate accumulation, CXCR4 (N119A)
  stimulation of the mutant receptor: 0.4 fold over basal

## c1cc(CN2CCCNCCNCCCNCC2)ccc1CN1CCCNCCNCCCNCC1 [AMD3100, reference compound]
CXCR4 [2]
  displacement of [^125I]-238D2 (in words): affinities comparable to those obtained against [^125I]-CXCL12
CXCR4 [2]; [25]
  [^125I]-238D2 Displacem. (%): 102 ± 1%
CXCR4 [3]
  displacement of [^125I]-238D4 (in words): affinities comparable to those obtained against [^125I]-CXCL12
CXCR4 [3]; [25]
  [^125I]-238D4 Displacem. (%): 99 ± 4%
CXCR4 [4]
  [^125I]-CXCL12 Displacem. (%): 94 ± 2%
CXCR4 (N119A) [5]
  binding to CXCR4 (N119A) (in words): clearly bind to the mutant receptor
CXCR4 (N119A) [1]
  functional profile on CXCR4 (N119A) (in words): Only antagonistic but no significant inverse agonistic activities

## monoclonal antibody 12G5
[6]
  maximal displacement (%): 54%
  pKi: 9.19 pKi
[7]
  % immunofluorescence: 57.7%
[8]
  maximal displacement (%): 89%
  pKi: 9.65 pKi
[9]
  % immunofluorescence: 85.5%
[10]
  % immunofluorescence: 1.5%
[11]
  % immunofluorescence: 93.9%
[12]
  % immunofluorescence: 112%
[13]
  % immunofluorescence: 110%
[14]
  % immunofluorescence: 89.5%
[15]
  % immunofluorescence: 95.1%
[16]
  % immunofluorescence: 50.4%
[17]
  % immunofluorescence: 91.8%
[18]
  % immunofluorescence: 94.7%
[19]
  % immunofluorescence: -9.1%
[20]
  % immunofluorescence: 118%
[21]
  % immunofluorescence: 61.3%
[22]
  % immunofluorescence: 113%
[23]
  % immunofluorescence: 96.8%
[24]
  maximal displacement (%): 90%
  pKi: 9.31 pKi

B1: L3: bivalent fusion product 238D2-15GS-238D4, SEQ ID NO: 4 (protein)
chain: EVQLVESGGGLVQTGGSLRLSCAASGFTFSSYAMSWVRQAPGKGLEWVSGIKSSGDSTRYAGSVKGRFTISRDNAKNMLYLQMYSLKPEDTAVYYCAKSRVSRTGLYTYDNRGQGTQVTVSSGGGGSGGGGSGGGGSEVQLMESGGGLVQAGGSLRLSCAASGRTFNNYAMGWFRRAPGKEREFVAAITRSGVRSGVSAIYGDSVKDRFTISRDNAKNTLYLQMNSLKPEDTAVYTCAASAIGSGALRRFEYDYSGQGTQVTVSS
modifications: Nanobody construct
CXCR4 (N119A) [5]
  binding affinities to CXCR4 (N119A) compared to wild type (in words): somewhat less compared to the wild type receptor
  binding to CXCR4 (N119A) (in words): able to bind to CXCR4 (N119A)
CXCR4 (N119A) [1]
  reduction of the constitutively increased basal signalling of CXCR4 (N119A): 64%
  functional profile on CXCR4 (N119A) (in words): partial inverse agonists

B2: L8: bivalent fusion product 238D2-20GS-238D4, SEQ ID NO: 5 (protein)
chain: EVQLVESGGGLVQTGGSLRLSCAASGFTFSSYAMSWVRQAPGKGLEWVSGIKSSGDSTRYAGSVKGRFTISRDNAKNMLYLQMYSLKPEDTAVYYCAKSRVSRTGLYTYDNRGQGTQVTVSSGGGGSGGGGSGGGGSGGGGSEVQLMESGGGLVQAGGSLRLSCAASGRTFNNYAMGWFRRAPGKEREFVAAITRSGVRSGVSAIYGDSVKDRFTISRDNAKNTLYLQMNSLKPEDTAVYTCAASAIGSGALRRFEYDYSGQGTQVTVSS
modifications: Nanobody construct
CXCR4 (N119A) [5]
  binding affinities to CXCR4 (N119A) compared to wild type (in words): somewhat less compared to the wild type receptor
  binding to CXCR4 (N119A) (in words): able to bind to CXCR4 (N119A)
CXCR4 (N119A) [1]
  reduction of the constitutively increased basal signalling of CXCR4 (N119A): 65%
  functional profile on CXCR4 (N119A) (in words): partial inverse agonists
